Assay results from patent US20120058906A1 (published 2012).
Values belong to the binder of their own block, whether it stands above or below them.

Assays:
[1] = target: T1, rHuman Erythropoietin R/Fc Chimera, CF (R&D Systems Cat#963-ER) (human, UniProt P19235 25-250); assay: ECL (MSD multi-spot), antigen spotted on plate; Fab 1000 nM; blank 760
T1 construct: Bought protein; also called EPO R/Fc; Epo R; Fc part of the bought chimera not given
T1 sequence: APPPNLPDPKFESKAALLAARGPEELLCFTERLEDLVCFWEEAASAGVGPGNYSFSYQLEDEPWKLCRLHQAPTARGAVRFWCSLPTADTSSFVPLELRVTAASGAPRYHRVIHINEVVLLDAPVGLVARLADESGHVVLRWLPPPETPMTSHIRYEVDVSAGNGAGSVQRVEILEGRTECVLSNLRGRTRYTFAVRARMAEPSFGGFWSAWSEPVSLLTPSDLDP

[2] = target: T2, rHuman EGF R/Fc Chimera, CF (R&D Systems Cat#344-ER) (human, UniProt P00533 25-645); assay: as above
T2 construct: Bought protein; also called epidermal growth factor receptor; Fc part of the bought chimera not given

[3] = target: T3, rHuman IGF-1 sR (IGF-1 sR), CF (R&D Systems Cat#391-GR) (human, UniProt P08069 31-932); assay: as above
T3 construct: Bought soluble receptor; also called insulin-like growth factor-1 soluble receptor; IGF-R1

[4] = target: T4, Recombinant Human DLL4 (R&D Systems Cat#1506-D4/CF) (human, UniProt Q9NR61 27-524); assay: as above
T4 construct: Bought protein; also called rHuman DLL4; delta-like protein 4

[5] = target: T5, rHuman CD44/Fc Chimera, CF (R&D Systems Cat#3660-CD) (human, UniProt P16070 21-220); assay: as above
T5 construct: Bought protein; Fc part of the bought chimera not given

[6] = target: T6, rHuman Notch-1/Fc Chimera, CF (R&D Systems Cat#3647-TK) (human, UniProt P46531 19-526); assay: as above
T6 construct: Bought protein; Fc part of the bought chimera not given

[7] = target: T7, rHuman ErbB2/Fc Chimera, CF (R&D Systems Cat#1129-ER) (human, UniProt P04626 23-652); assay: as above
T7 construct: Bought protein; also called HER2/neu; human epidermal growth factor 2 receptor; Fc part of the bought chimera not given

[8] = target: T8, rHuman HGF R/c-MET/Fc Chimera, CF (R&D Systems Cat#358-MT/CF) (human, UniProt P08581 25-932); assay: as above
T8 construct: Bought protein; also called HGF R/Fc; hepatocyte growth factor receptor; Fc part of the bought chimera not given

[9] = target: T9, rHuman P-Cadherin/Fc Chimera, CF (R&D Systems Cat#861-PC) (human, UniProt P22223 108-654); assay: as above
T9 construct: Bought protein; also called CDH3; Fc part of the bought chimera not given

[10] = target: T1, rHuman Erythropoietin R/Fc Chimera, CF …; assay: ECL (MSD multi-spot), antigen spotted on plate; Fab 10 nM; blank 550
[11] = target: T2, rHuman EGF R/Fc Chimera, CF (R&D …); assay: as above
[12] = target: T3, rHuman IGF-1 sR (IGF-1 sR), CF (R&D …); assay: as above
[13] = target: T4, Recombinant Human DLL4 (R&D Systems …); assay: as above
[14] = target: T5, rHuman CD44/Fc Chimera, CF (R&D Systems …); assay: as above
[15] = target: T6, rHuman Notch-1/Fc Chimera, CF (R&D …); assay: as above
[16] = target: T7, rHuman ErbB2/Fc Chimera, CF (R&D …); assay: as above
[17] = target: T8, rHuman HGF R/c-MET/Fc Chimera, CF (R&D …); assay: as above
[18] = target: T9, rHuman P-Cadherin/Fc Chimera, CF (R&D …); assay: as above
[19] = target: T10, rHuman IGF-1 sR, CF (R&D Systems Cat#391-GR) (human, UniProt P08069 31-932); assay: ECL (MSD Multi-Spot) binding, antigen spotted on plate; Fab 10 nM
T10 construct: Bought soluble receptor; also called insulin-like growth factor-1 soluble receptor; IGF-R1

[20] = target: T11, rHuman ErbB2/Fc Chimera, CF (R&D Systems Cat#1129-ER) (human, UniProt P04626 23-652); assay: as above
T11 construct: Bought Fc chimera; also called human epidermal growth factor 2 receptor; HER2/neu; Fc part of the bought chimera not given

[21] = target: T12, rHuman P-Cadherin/Fc Chimera, CF (R&D Systems Cat#861-PC) (human, UniProt P22223 108-654); assay: as above
T12 construct: Bought Fc chimera; Fc part of the bought chimera not given

[22] = target: T13, rHuman Erythropoietin R/Fc Chimera, CF (R&D Systems Cat#963-ER) (human, UniProt P19235 25-250); assay: as above
T13 construct: Bought Fc chimera; also called EPO R/Fc; erythropoietin receptor; Fc part of the bought chimera not given
T13 sequence: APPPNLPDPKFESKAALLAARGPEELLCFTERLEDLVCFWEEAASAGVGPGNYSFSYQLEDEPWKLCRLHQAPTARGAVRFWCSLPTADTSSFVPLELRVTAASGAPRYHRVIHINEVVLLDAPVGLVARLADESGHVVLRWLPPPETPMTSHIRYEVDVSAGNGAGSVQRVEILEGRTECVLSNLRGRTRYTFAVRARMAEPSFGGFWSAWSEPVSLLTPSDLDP

[23] = target: T14, rHuman Notch-1/Fc Chimera, CF (R&D Systems Cat#3647-TK) (human, UniProt P46531 19-526); assay: as above
T14 construct: Bought Fc chimera; Fc part of the bought chimera not given

[24] = target: T15, rHuman CD44/Fc Chimera, CF (R&D Systems Cat#3660-CD) (human, UniProt P16070 21-220); assay: as above
T15 construct: Bought Fc chimera; Fc part of the bought chimera not given

[25] = target: T16, rHuman HGF R/c-MET/Fc Chimera, CF (R&D Systems Cat#358-MT/CF) (human, UniProt P08581 25-932); assay: as above
T16 construct: Bought Fc chimera; also called HGF R/Fc; hepatocyte growth factor receptor; Fc part of the bought chimera not given

[26] = target: T17, rHuman EGF R/Fc Chimera, CF (R&D Systems Cat#344-ER) (human, UniProt P00533 25-645); assay: as above
T17 construct: Bought Fc chimera; also called epidermal growth factor receptor; Fc part of the bought chimera not given

[27] = target: T18, Recombinant Human DLL4 (R&D Systems Cat#1506-D4/CF) (human, UniProt Q9NR61 27-524); assay: as above
T18 construct: Bought recombinant protein; also called delta-like protein 4

[28] = target: T10, rHuman IGF-1 sR, CF (R&D Systems …); assay: ECL (MSD Multi-Spot) binding, antigen spotted on plate; Fab 1000 nM
[29] = target: T11, rHuman ErbB2/Fc Chimera, CF (R&D …); assay: as above
[30] = target: T12, rHuman P-Cadherin/Fc Chimera, CF (R&D …); assay: as above
[31] = target: T13, rHuman Erythropoietin R/Fc Chimera, CF …; assay: as above
[32] = target: T14, rHuman Notch-1/Fc Chimera, CF (R&D …); assay: as above
[33] = target: T15, rHuman CD44/Fc Chimera, CF (R&D Systems …); assay: as above
[34] = target: T16, rHuman HGF R/c-MET/Fc Chimera, CF (R&D …); assay: as above
[35] = target: T17, rHuman EGF R/Fc Chimera, CF (R&D …); assay: as above
[36] = target: T18, Recombinant Human DLL4 (R&D Systems …); assay: as above
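Further: blank spot per well as comparator with Hit at signal to blank ratio of 4 or more.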

- ECL signal [1]: 1510
- ECL signal [2]: 1910
- ECL signal [3]: 1340
- ECL signal [4]: 29800
- ECL signal [5]: 1220
- ECL signal [6]: 1210
- ECL signal [7]: 1280
- ECL signal [8]: 1360
- ECL signal [9]: 1380
- ECL signal [10]: 802
- ECL signal [11]: 773
- ECL signal [12]: 814
- ECL signal [13]: 55100
- ECL signal [14]: 746
- ECL signal [15]: 792
- ECL signal [16]: 847
- ECL signal [17]: 859
- ECL signal [18]: 846
B1: Fab VH1-46_IGHD6-6*01_IGHJ1*01_S103P & L6_IGKJ1*01 (Fab, V domains shown)
VH: QVQLVQSGAEVKKPGASVKVSCKASGYTFTSYYMHWVRQAPGQGLEWMGIINPSGGSTSYAQKFQGRVTMTRDTSTSTVYMELSSLRSEDTAVYYCAREEYSPSSAEYFQHWGQGTLVTVSS
VL: not shown
notes: Expressed in E. coli as a Fab; CH1 with Flag and His tags comes from Plasmid A and the kappa CL from Plasmid C; also called IGHV1-46*01; IGHJ1*01 S103P with IGKV3-11*01

- ECL signal [19]: 657
- ECL signal [20]: 670
- ECL signal [21]: 691
- ECL signal [22]: 761
- ECL signal [23]: 647
- ECL signal [24]: 681
- ECL signal [25]: 698
- ECL signal [26]: 677
- ECL signal [27]: 38700
- ECL signal [28]: 1170
- ECL signal [29]: 946
- ECL signal [30]: 1500
- ECL signal [31]: 1320
- ECL signal [32]: 1250
- ECL signal [33]: 1090
- ECL signal [34]: 1660
- ECL signal [35]: 1600
- ECL signal [36]: 22200
B2: Fab VH1-46_IGHD6-6*01_IGHJ1*01_S102A & L6_IGKJ1*01 (Fab, V domains shown)
VH: QVQLVQSGAEVKKPGASVKVSCKASGYTFTSYYMHWVRQAPGQGLEWMGIINPSGGSTSYAQKFQGRVTMTRDTSTSTVYMELSSLRSEDTAVYYCAREEYASSSAEYFQHWGQGTLVTVSS
VL: not shown
notes: Fab made in E. coli; The heavy chain also carries the CH1 with Flag and His tags of Plasmid A, and the light chain the kappa constant region of Plasmid C
